Results published in article doi:10.1101/2022.04.11.487882.

Molecular target: receptor-binding domain (RBD) of the SARS-CoV-2 spike (S) protein S1 region, His-tagged (SARS-CoV-2) (UniProt P0DTC2)
Test: SPR

Substance | Kd [nM] | koff [s⁻¹] | kon [M⁻¹ s⁻¹]
recombinant human integrin αvβ3 (from UniProt P06756 31-1048; P05106 27-718) (complex) | > 500 | – | –
recombinant human integrin αvβ6 (from UniProt P06756 31-1048; P18564 22-709) (complex) | 230 | 0.0236 | 84000
